Reference: paper PMC3556572 (Biochemistry, 2012)
Where two headings read alike, the source gives them in different places.

B1: Abl2/Arg (Abelson-related gene) nonreceptor tyrosine kinase (enzyme)
chain: MGQQVGRVGEAPGLQQPQPRGIRGSSAARPSGRRRDPAGRTADAGFNVFTQHDHFASCVEDGFEGDKTGGSSPEVLHRPFGCDAESQALNEAIRWSSKENLLGATESDPNLFVALYDFVASGDNTLSITKGEKLRVLGYNQNGEWSEVRSKNGQGWVPSNYITPVNSLEKHSWYHGPVSRSAAEYLLSSLINGSFLVRESESSPGQLSISLRYEGRVYHYRINTTTDSKVYVTAESRFSTLAELVHHHSTVADGLVTTLHYPAPKCNKPTVYGVSPIHDKWEMERTDITMKHKLGGGQYGEVYVGVWKKYSLTVAVKTFKEDTMEVEEFLKEAAVMKEIKHPNLVQLLGVCTLEPPFYIVTEYMPYGNLLDYLRECSREEVTAVVLLYMATQISSAMEYLEKKNFIHRDLAARNCLVGENHVVKVADFGLSRLMTGDTYTAHAGAKFPIKWTAPESLAYNTFSIKSDVWAFGVLLWEIATYGMSPYPGIDLSQVYDLLEKGYRMEQPEGCPPKVYELMRACWKWSPADRPSFAETHQAFETMFHDSSISEEVAEELGRTASSSSVVPYLPRLPLLPSKTRTLRKQGENKENLDGGLDAAESLASSSAPAGFIRSTQASSGSPALPRKQRDKSPSSLLEDAKETCFTRDRKGGFFSSFMKKRNAPTPPKRSSSFREMENQPHKKYELTGNFSPVASLQNADGFSVAPSQQEPNLVPAKCYGGSFAQRNLCADDDSGGGGGSGTAGGGWSGITGFFTPRLIKKTLGLRAGKPTASDDTSKPFPRSNSTSSMSSGLPEQDRMAMTLPRNCQRSKLQLERTVSTSSQPEENVDRANDMLPKKSEEGAAPARERPKAKLLPRGATALPLRAPDPAITESDSPGVGVAGVAAAPKGKERNGGTRLGVAGVPEDGEQLGWSSPAKAVAVLPTTHNHKVPVLISPTLKHTPADVQLIGTDSQGNKFKLLSEHQVTSSGDKDRPRRVKPKCAPPPPPVMRLLQHPSTCSDPEEEPTAPPAGQHTPETQEGGKKAAPGPVPSSGKPGRPVMPPPQVPLPTSSISPAKMANGTAGTKVALRKTKQAAEKISADKISKEALLECADLLSSAITEPVPNSQLVDTGHQLLDYCSGYVDSIPQTRNKFAFREAVSKLELSLQELQVSSTAAGVPGTNPVLNNLLSCVQEISDVVQR
B2: cortactin (natural protein)
chain: not shown
modifications: exhibits tyrosine phosphorylation as purified from insect cells (anti-phosphotyrosine blot); sites not mapped here
B3: cortactin W525A (natural protein)
chain: not shown
modifications: exhibits tyrosine phosphorylation as purified from insect cells (anti-phosphotyrosine blot); sites not mapped here
B4: cortactin W525A, enzymatically dephosphorylated (natural protein)
chain: not shown
modifications: dephosphorylated with CIP (no tyrosine phosphorylation on the anti-phosphotyrosine blot)
B5: cortactin 3YF (natural protein)
chain: not shown

Columns and labels:
Assay in all cases: co-sedimentation
[1] = molecular target: T1, filamentous actin (F-actin), chicken skeletal muscle (chicken, UniProt P68139 1-377)
[2] = molecular target: T1, filamentous actin (F-actin), chicken …; remark: listed apart in the source
[3] = molecular target: T1, filamentous actin (F-actin), chicken …; remark: listed apart in the source

Binder	stoichiometry N [1]	stoichiometry N [2]	stoichiometry N [3]	fold decrease in affinity for F-actin in the presence of saturating Arg [3]
B1	0.5 Arg per actin monomer	–	–	–
B2	–	0.25 cortactin per actin monomer	–	–
B3	–	0.25 cortactin per actin monomer	0.5 cortactin per actin monomer	–
B4	–	–	–	~3 fold
B5	–	0.25 cortactin per actin monomer	0.5 cortactin per actin monomer	~3 fold
